Measured values: patent US11453711B2, “Fusion proteins of GLP-1 and GDF15 and conjugates thereof” (BEIJING QL BIOPHARMACEUTICAL CO., LTD., priority 2019, dated 2022)

Test: Body weight and food intake in C57BL/6 mice, unconjugated fusion proteins, 30 nmol/kg daily 10 days
Type: in vivo
Settings: C57 mice, 30 nmol/kg daily, Day11, unconjugated fusion proteins
Experimental: 10 week old male C57BL/6 mice were injected everyday subcutaneously with 15 nmol/kg of the fusion protein conjugates (i.e., MLC002, MLC 004, MLC 005, MLC 006, MLC 007, MLC 008, and MLC 009) for 14 days. Food intake and body weight were measured daily and five animals were used for each treatment group. Body weight (BW) was monitored for each individual animal, but food intake for each group animals was measured together. Day 1 and Day 14 are first day and last day of molecule dosage. % BW loss=100*(BW on Day n-BW on Day 1)/(BW on Day 1). Cumulative food intake on Day n represents sum of food intake from Day 1 to Day n. Data are indicated as mean values and standard error (SEM) or pooled values. Statistical analysis was performed by One-way ANOVA. Body weight reduction on Day 11 is calculated by −1*(% BW loss−% BW loss of vehicle group); Cumulative food intake reduction is calculated by −100*(cumulative food intake-cumulative food intake of vehicle)/cumulative food intake of vehicle.
As described in the above method, a daily dose of 30 nmol/kg of the unconjugated fusion proteins (i.e., MLC100, MLC023, MLC022, MLC020, MLC003, MLC124, MLC021, MLC019, MLC102) were administered to C57BL/6 for 10 days. Data were calculated as above method. Day 1 and Day 10 are first day and last day of administration.

Row | Molecule | Body weight reduction at 30 nmol/kg (% reduction compared to vehicle)(Day11) [%] | Cumulative food intake reduction at 30 nmol/kg (% reduction compared to vehicle)(Day11) [%]
1 | MLC102: unconjugated GLP-1/GDF15 fusion protein (protein) HGEGTFTSDVSSYLEEQAAKEFIAWLVRGGGGQEPGAQPGQEPGAQPGQEPGAQPGQEPGAQPGQEPGAQPGQEPGAQPGAQPGAQPGAQPGAQPGAQPGAQPGAQPGAQPGAQPGAQPGAQPGAQPGAQPGAQPGAQPGAQPGAQPGAQPARQGDHCPLGPGRCCRLHTVRASLEDLGWADWVLSPREVQVTMCIGACPSQFRAANLHAQIKTSLHRLKPDTVPAPCCVPASYNPMVLIQKTDTGVSLQTYDDLLAKDCHCI | 29.3 | 36.9
2 | MLC022: unconjugated GLP-1/GDF15 fusion protein (protein) HGEGTFTSDVSSYLEEQAAKEFIAWLVRGGGGQEPGQEPGQEPGQEPGQEPGQEPARQGDHCPLGPGRCCRLHTVRASLEDLGWADWVLSPREVQVTMCIGACPSQFRAANLHAQIKTSLHRLKPDTVPAPCCVPASYNPMVLIQKTDTGVSLQTYDDLLAKDCHCI | 10.4 | 30.0
3 | MLC124: unconjugated GLP-1/GDF15 fusion protein, linker of at least 60 residues (protein) HGEGTFTSDVSSYLEEQAAKEFIAWLVRGGGGQEPGAQPGQEPGAQPGQEPGAQPGQEPGAQPGQEPGAQPGQEPGAQPGAQPGAQPGAQPARQGDHCPLGPGRCCRLHTVRASLEDLGWADWVLSPREVQVTMCIGACPSQFRAANLHAQIKTSLHRLRPDTVPAPCCVPASYNPMVLIQRTDTGVSLQTYDDLLARDCHCI | 23.0 | 38.0
4 | MLC020: unconjugated GLP-1/GDF15 fusion protein (protein) HGEGTFTSDVSSYLEEQAAKEFIAWLVRGGGGQEPGQEPGQEPGQEPGQEPGQEPGQEPGQEPGAQPGAQPARQGDHCPLGPGRCCRLHTVRASLEDLGWADWVLSPREVQVTMCIGACPSQFRAANLHAQIKTSLHRLKPDTVPAPCCVPASYNPMVLIQKTDTGVSLQTYDDLLAKDCHCI | 17.0 | 26.0
5 | MLC100: unconjugated GLP-1/GDF15 fusion protein (protein) HGEGTFTSDVSSYLEEQAAKEFIAWLVRGGGGQEPARQGDHCPLGPGRCCRLHTVRASLEDLGWADWVLSPREVQVTMCIGACPSQFRAANLHAQIKTSLHRLKPDTVPAPCCVPASYNPMVLIQKTDTGVSLQTYDDLLAKDCHCI | 9.9 | 26.3
6 | MLC023: unconjugated GLP-1/GDF15 fusion protein (protein) HGEGTFTSDVSSYLEEQAAKEFIAWLVRGGGGQEPGQEPGQEPARQGDHCPLGPGRCCRLHTVRASLEDLGWADWVLSPREVQVTMCIGACPSQFRAANLHAQIKTSLHRLKPDTVPAPCCVPASYNPMVLIQKTDTGVSLQTYDDLLAKDCHCI | 12.5 | 31.7

Same assay, conditions: unconjugated fusion proteins, 30 nmol/kg daily 10 days; by linker length

Row | Molecule | in vivo efficacy (food intake and body weight reduction)
7 | MLC124: unconjugated GLP-1/GDF15 fusion protein, linker of at least 60 residues (protein) HGEGTFTSDVSSYLEEQAAKEFIAWLVRGGGGQEPGAQPGQEPGAQPGQEPGAQPGQEPGAQPGQEPGAQPGQEPGAQPGAQPGAQPGAQPARQGDHCPLGPGRCCRLHTVRASLEDLGWADWVLSPREVQVTMCIGACPSQFRAANLHAQIKTSLHRLRPDTVPAPCCVPASYNPMVLIQRTDTGVSLQTYDDLLARDCHCI | the most significant results among all the tested fusion proteins
